Assay results taken from FireProtDB (doi:10.1021/bi00462a019).
Several values for one entry are separate records, joined by “and”; a condition that tells them apart may be missing. Identical values can stand only once.

Settings: Aspergillus oryzae (strain ATCC 42149 / RIB 40), 25 °C, Fluorescence, reversible: yes, whole UniProt chain shown

B1: Guanyl-specific ribonuclease T1 wild type, P00651 (protein)
chain: MMYSKLLTLTTLLLPTALALPSLVERACDYTCGSNCYSSSDVSTAQAAGYQLHEDGETVGSNSYPHKYNNYEGFDFSVSSPYYEWPILSSGDVYSGGSPGADRVVFNENNQLAGVITHTGASGNNFVECT
denaturant m value (pH 2.92, GdnHCl, formate 30 mM): 2.89 kcal/mol/M
denaturant midpoint (higher = more stable) (pH 2.92, GdnHCl, formate 30 mM): 2.78 M
unfolding free energy (pH 2.92, GdnHCl, formate 30 mM): 8.04 kcal/mol
unfolding free energy (pH 2.92, Urea, formate 30 mM): 6.2 kcal/mol
denaturant m value (pH 3.02, GdnHCl, formate 30 mM): 2.89 kcal/mol/M
denaturant midpoint (higher = more stable) (pH 3.02, GdnHCl, formate 30 mM): 1.8 M
unfolding free energy (pH 3.02, GdnHCl, formate 30 mM): 5.2 kcal/mol
unfolding free energy (pH 3.02, Urea, formate 30 mM): 5.2 kcal/mol
denaturant m value (pH 6.98, GdnHCl, MOPS 30 mM): 3.09 kcal/mol/M and 2.58 kcal/mol/M
denaturant midpoint (higher = more stable) (pH 6.98, GdnHCl, MOPS 30 mM): 2.99 M and 2.98 M
unfolding free energy (pH 6.98, GdnHCl, MOPS 30 mM): 9.24 kcal/mol and 7.7 kcal/mol
denaturant m value (pH 9.89, GdnHCl, glycine 30 mM): 3.27 kcal/mol/M
denaturant midpoint (higher = more stable) (pH 9.89, GdnHCl, glycine 30 mM): 2.57 M
unfolding free energy (pH 9.89, GdnHCl, glycine 30 mM): 8.4 kcal/mol
unfolding free energy (pH 9.89, Urea, glycine 30 mM): 8.6 kcal/mol
denaturant m value (pH 9.91, GdnHCl, glycine 30 mM): 2.58 kcal/mol/M
denaturant midpoint (higher = more stable) (pH 9.91, GdnHCl, glycine 30 mM): 1.36 M
unfolding free energy (pH 9.91, GdnHCl, glycine 30 mM): 3.52 kcal/mol
